{"source": "paper PMC8052261", "target": "DDX3X helicase core WT (human, UniProt O00571 132-607)", "sequence (O00571 132-607)": "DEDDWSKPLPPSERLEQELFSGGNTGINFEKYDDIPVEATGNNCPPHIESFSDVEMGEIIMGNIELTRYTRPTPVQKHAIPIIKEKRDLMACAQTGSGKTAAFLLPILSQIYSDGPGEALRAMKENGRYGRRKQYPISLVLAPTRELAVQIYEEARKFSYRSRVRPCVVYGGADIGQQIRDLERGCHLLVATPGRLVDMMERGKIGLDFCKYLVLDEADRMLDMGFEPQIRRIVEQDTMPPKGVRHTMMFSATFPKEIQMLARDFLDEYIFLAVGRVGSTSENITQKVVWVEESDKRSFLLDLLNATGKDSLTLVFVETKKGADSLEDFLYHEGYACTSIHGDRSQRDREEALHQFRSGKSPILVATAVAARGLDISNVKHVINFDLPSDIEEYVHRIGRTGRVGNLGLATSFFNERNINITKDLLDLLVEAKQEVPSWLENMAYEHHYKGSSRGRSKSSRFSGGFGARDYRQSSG", "experiment": "fluorescence polarization", "data": [{"binder": "UCUCUCUCUCUCUCUCUCUC (ssRNA)", "note": "[(UC)10]", "values": [{"measurement": "binding result", "value": "no binding"}]}]}
